The target in one assay is Human GPC3.hFc. Kind of assay: SPR (Carterra).
The target of another assay is Cyno GPC3.hFc. Kind of assay: SPR (Carterra).

The results in this text go back to patent US20250090663A1.

As a reminder, the Kd is the concentration at which binding is half-saturated. A higher Kd goes with lower affinity. HGC33 scFv: the Kd with Human GPC3.hFc worked out at 2.63 nM; with Cyno GPC3.hFc it was 2.46 nM.
